Reference: PMC11731451, “Phosphorylation of Lamin A/C regulates the structural integrity of the nuclear envelope” (The Journal of Biological Chemistry, 2024)

Target: T1, GST-tagged Lamin A-C178 (250-428 aa), wild type (UniProt P02545 250-428)
T1 construct: Lamin A, fragment C178, residues 250-428; also called Lamin-A-C178-WT
T1 sequence (looked up): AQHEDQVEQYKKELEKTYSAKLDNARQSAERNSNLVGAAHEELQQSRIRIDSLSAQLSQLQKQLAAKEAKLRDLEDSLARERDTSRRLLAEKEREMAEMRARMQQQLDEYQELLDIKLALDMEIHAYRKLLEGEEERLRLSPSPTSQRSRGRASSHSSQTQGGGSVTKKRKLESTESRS
Test: pull-down; 10 ug GST-tagged protein on glutathione agarose beads incubated with 10 ug soluble recombinant protein; PBS with 0.1% Triton X-100, 4 C, 4 h; three washes; SDS-PAGE with Coomassie staining; salt concentration also varied (Fig. S4B)
Conditions: both partners purified

binding result: binds
B1: His-tagged Lamin A-N125 (1-125 aa), wild type (domain or fragment, UniProt P02545 1-125, looked up)
chain: METPSQRRATRSGAQASSTPLSPTRITRLQEKEDLQELNDRLAVYIDRVRSLETENAGLRLRITESEEVVSREVSGIKAAYEAELGDARKTLDSVAKERARLQLELSKVREEFKELKARNTKKEG
notes: The cell work is in human HeLa cells; also called Lamin A-N125-WT; source: E. coli BL21, purified (Ni-NTA agarose, dialysed)
